Measurements published in the nanobody polyreactivity screen of Harvey et al. (2022).

Test: yeast display, Sf9 membrane polyspecificity reagent, FACS + sequencing; frameworks hold sequencing errors
Outline: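 Polyreactivity labels are assigned by the sorting gate from which each nanobody was recovered. The gates were low and high (top ~1%), set on anti-HA fluorescence for expression and streptavidin fluorescence for reagent binding. Before sorting, galactose-induced (36–48 hours) yeast display cells were stained for 1 hour at 4 °C with 10% biotinylated, detergent-solubilized Sf9 membrane reagent.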

Sequence	polyreactivity (PSR sort gate)
QVQLVESGGGLVHAGGSLRLSCAASGFILSANDMGWYRQAPGQERELVADIDSSGRTNYADSVKGRFTISRDNAKNTVYLQMISLKPEDTAVYYCATPPDDKGGGYLGFDYWGQGTQVTVSS	low polyreactivity
QVQLVESGGGLVHAGGSLRLSCAASGFTFPNYAMGWYRQAPGKERSLVAAITSGGGRTNYADSVKGRFTISRDNAKNTVYLQMISLKPEDTAVYYCAKTRVRGSEFGYWGQGTQVTVSS	low polyreactivity
QVQLVESGGGLVHAGGSLRLSCAASGFTFSFYAMGWYRQAPGKERELVATITGSGVRTYYADSVKGRFTISRDNAKNTVYLQMNSLKPEDTAVYYCNRQGFTHRGYYWGQGTQVTVSS	high polyreactivity
QVQLVESGGGLVHAGGSLRLSCAASGFTFTAYARGWYRQATGKERELVAAINWSGSRTYNADSVKGRFTISRDNAKNTVYLQMNSLKPEDSAVYYCNTATSKSSYRHYDYWGQGTLVTVSS	high polyreactivity
QVQLVESGGGLVHAGGSLRLSCAASGFTFVFYVMGWYRQAPGQERELVAGISGRGASTYYADSVKGRFTISRDNAKNTVYLQMNSLIPEDTAVYYCNAVHWGGTYWGLDYWGQGTQVTVSS	low polyreactivity
QVQLVESGGGLVHAGGSLRLSCAASGFTFWYYTMGWYRQAPGKERELVAAITASGGNTYYADSVKGRFTISRDNAKNTVYLQMYSLKPEDTAVYYSNAVSLKFTRKYDYWGQGPQVTVSS	high polyreactivity
QVQLVESGGGLVHAGGSLRLSCAASGFTFYRNTMGWYRQAPGKERELVAAISTRAGSTYYADSVKGRFTISRDNAKNTVYLQMNSLKPEDTAVYYCAVLTYRGRFEYWGQGTQVTVSS	high polyreactivity
QVQLVESGGGLVHAGGSLRLSCAASGGIFAGNVMGWDRQAPGKERYLVAAIDGDGRTYYADSVKGRFTISRDNAKNTVYLQMYSQKPEDTAVYYCAADAGVRGQYDDIDEGNYWGLGTQVTVSS	low polyreactivity
QVQLVESGGGLVHAGGSLRLSCAASGGTFDVNAMGWYRQAPGKERELVATISGGGSTNYADSVNGRFTISRDNAKNSVYLQINSLKPEDTAVYYCAAESEPIRNRERDYWGQGTQVSVSS	low polyreactivity
QVQLVESGGGLVHAGGSLRLSCAASGGTFGYYAMGWYRQAPGQERDLVAAISGSGGSTYYADSVKGRYTISRDHAKNTFYFQMNSLKPEDTAVYYCNAYIFGEVPNNYYWGQGTQVTVSS	high polyreactivity
QVQLVESGGGLVHAGGSLRLSCAASGIILSDNSMGWYRQAPGKEREVVAAITGSGGSTYYADSVKGRFTISRDNAKNTVYLQMNSLKPEDTAVYYCAADGPYGYYYGHYGYWGQGTQVTVSS	low polyreactivity
QVQLVESGGGLVHAGGSLRLSCAASGITLVRYAMGWYRQAPGKERELVAAISSSGGSTYYADSVKGRFTISRDNAKNTVYLQMNSLKPEDTAVYYCNAYVHSRRVEFNYWGQGTQVTVSS	high polyreactivity
QVQLVESGGGLVHAGGSLRLSCAASGITSSQNAMGWYRQAPGKERELVAAISWRGGSTYYADSVKGRFTISRDNAKNNVYLQMNSLKAEDTAVYYCNVVKRSLRYDYWGQCTQVTVSS	high polyreactivity
QVQLVESGGGLVHAGGSLRLSCAASGITYQAYAMGWYRQAPGKEREMVAAINDSGSSTYYADSVKGRFTISRDNAKNTVYLQMNSLKPEDTAVYYCAAYLWFWGQGTQVTVSS	low polyreactivity
QVQLVESGGGLVHAGGSLRLSCAASGLIFRGYAMGWYRQAPGKERELVAAISKSGGSTYYADSVKGRFTISRDNAKNTVYLQLNSLKPEDTAVYYCITDYVWKYFLSSQYDYWGQGTQVTVSS	high polyreactivity
QVQLVESGGGLVHAGGSLRLSCAASGLTFYRYAMGWYRQAPGKERELVAAIRSNVVTTYYADSVKGRFTISRDNAKNTVYLQMNSLKPEDTAVYYCAARFGRSAQPGYDYWGQGTQVTVSS	high polyreactivity

Sequence	polyreactivity (PSR sort gate)
QVQLVESGGGLVHAGGSLRLSCAASGNIPPGNAMGWYRQAPGKERELVAAITASDGSTYYADSEKGRFTISRDHDKNTVYLQMNSLKPEDTAVYYCAKEQVYTYYLEYEYWGQGTQVTVSS	high polyreactivity
QVQLVESGGGLVHAGGSLRLSCAASGRIFATNVMGWYRQAPGKETEMVAAISRSGASTYYADSVKGRFTISRDNAKTSVYLQMNSLKPEDTAGYYCADRRFYYGDRYDYWGQGTQVTVSS	high polyreactivity
QVQLVESGGGLVHAGGSLRLSCAASGRIFSYYTMGWYRQAPGKERELVAAITASDGDTYYADSVKGRFTISRDNAMNTVYLQMNSLKPEDTAVYYCAADFWYYHTRMDYWGKGTQVTVSS	low polyreactivity
QVQLVESGGGLVHAGGSLRLSCAASGRIFVRYAMGWYRQAPGKERELVAAISSSGSSTYYADSVKGRFTISRDNAKNTVYLQMNSLKPEETAVYYCAAASVRYPRYEYWGQGTQVTVSS	high polyreactivity
QVQLVESGGGLVHAGGSLRLSCAASGRTFKKYAMGLYRQAPGKERELVAAISWSGGTTYYADSVKGRFTISRDNAKNTVYLQMNSLKPEDTAVYYCAARVSRTGDGYYYYWGQGTQVTVSS	high polyreactivity
QVQLVESGGGLVHAGGSLRLSCAASGRTFKVYAMGWYRQAPGKERELVASISRSGGSTYYSDSVKGRFTISRDIAKNTVFLQRNSLKPEDTAVYYCAADFCFYGSRVWEYDYWGQGTQVTVSS	high polyreactivity
QVQLVESGGGLVHAGGSLRLSCAASGRTFRAYAMGWYRQAPRKERDLVAAISGGGGSTYYADSVKGRFTISRDNAKNTVYLQMNRLKPEYTAVYYCAVKGTQKLAKYNYWGQGTQVTVSS	high polyreactivity
QVQLVESGGGLVHAGGSLRLSCAASGSIFAGYAMGRYRQAPGKERELVAAITSGGRTYYADSVKGRFTISRDNAKNTVYLQMNSLKPEDTAVYYCGKRWYTKTGYDYWGQGTQVTVSS	high polyreactivity
QVQLVESGGGLVHAGGSLRLSCAASGSIFPPYAMGWYRQAPVKERELVAAITRSGGSTYYADSVKGRFTISRDNAKNTVYLQLNSLIPEDTAVSDCADRYPGGYGYWGQGTQVTVSS	high polyreactivity
QVQLVESGGGLVHAGGSLRLSCAASGSIFTDYAMGWYRQAPGKERELVAVIDIDGSTYYADSVKGRFTISRDNEKNSVYLQMNSLKPEDTAVYYCAAGYTYYSLYGYWGQGTQVTVSS	low polyreactivity
QVQLVESGGGLVHAGGSLRLSCAASGSIFTVNAMGWYRQAPGKERELVAAIDGSSGSTNYADSEKGRFTISRDNAKNTVYLQMNSLKPEDTAVYYCAADWSYEYGYWGQGTQVTVSS	low polyreactivity
QVQLVESGGGLVHAGGSLRLSCAASGSIFYHYAMGWYRQAPGKERELVAAITWSGGSTYYADSVKGRFTISRDNAKNTVYLQMNSLKPEDTAVYYCATSSNVEFGYWGQGTQVTVSS	low polyreactivity
QVQLVESGGGLVHAGGSLRLSCAASGSIFYRYAKGWYIQAPGKERDLVAAITYSGGRTYYADSVKGRFTISRDNAKNSVYLKMNILKPEDTAVYYCAAEKQSYGSPKGYDYWGQGTQVTVSS	low polyreactivity
QVQLVESGGGLVHAGGSLRLSCAASGSIFYYYAMGWYRPAPGKERELVAAIYNGGSTYYADSVKGRFTISRDNAKNTVYLEMNSLKPEDTAVYYCNAGYSYWYRDLGYDSWGQGTQVTVSS	low polyreactivity
QVQLVESGGGLVHAGGSLRLSCAASGSIYIFNAMGWYRQAPGKEREFVARIRRDSSTYYADSVKGRFTISRDNAKNTVYLQMNSLKPEDTAVYYCAAKRVYRRVELNSWGQGTQVTVSS	low polyreactivity
QVQLVESGGGLVHAGGSLRLSCAASGSTFAYNAMGWYRQAPGKERELVDAIDWSDGITYYADSVKGRFTISRDNAKNTVYLQMNSLKPEDTAVYYCAAEDGYTDSRAYGYDYWGQGTQVTVSL	low polyreactivity
